Measurements reported in article PMC2566879.

Columns and labels:
[1] = target: histone H1 coupled to the SPR sensor chip (UniProt P02253); test: SPR
[2] = target: histone H3/H4 tetramer coupled to the SPR sensor chip (UniProt P84229); test: SPR

UniProt P02253, sequence (P02253 whole entry): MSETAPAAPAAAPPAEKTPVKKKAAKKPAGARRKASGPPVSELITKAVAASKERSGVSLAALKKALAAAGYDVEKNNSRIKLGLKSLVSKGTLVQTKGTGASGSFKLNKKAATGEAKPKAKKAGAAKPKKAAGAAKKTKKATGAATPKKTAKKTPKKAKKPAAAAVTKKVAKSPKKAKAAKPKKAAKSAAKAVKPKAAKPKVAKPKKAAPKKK

## recombinant human somatic NASP (nuclear autoantigenic sperm protein), NH2-terminal 6His tag (from UniProt P49321-2 1-449) (natural protein)
[1]
  Kd: 13.8 nM
  koff: 0.000198 s⁻¹
  kon: 14400 M⁻¹ s⁻¹
[2]
  Kd: 237 nM
  koff: 0.000691 s⁻¹
  kon: 2920 M⁻¹ s⁻¹
